Experimental data taken from the supplement of paper PMC7125110.
± gives the standard error. Fewer inactive variants are shown than the library holds.

B1: glmS ribozyme (parent)
chain: AUAAAAGCGCCAGAACUACAGAAAUGUAGUUGACGAGGAGGAGGUUUAUCGAAUUUUCGGCGGAUGCCUCCAAA

Key:
Settings in all cases: with glucosamine-6-phosphate
glucosamine-6-phosphate [1] = variants of: B1; experiment: self-cleavage kobs at 40 uM GlcN6P; higher = faster cleavage; RNA array
Outline: (§1)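 Glucosamine-6-phosphate in HEPES/KCl/Mg(OAc)2 buffer, at 40 μM to 10 mM, was flowed over barcoded ribozyme variants transcribed in situ by E. coli RNA polymerase on sequenced MiSeq chips. Tracking was through a hybridised Cy3 probe at 37 °C. kobs, kcat and KM came from exponential decay fits and weighted Michaelis–Menten fits of normalised per-tile medians.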

glucosamine-6-phosphate [2] = variants of: B1; experiment: self-cleavage kobs at 10000 uM GlcN6P; higher = faster cleavage; RNA array
Outline: as §1

glucosamine-6-phosphate [3] = variants of: B1; experiment: self-cleavage kobs at 160 uM GlcN6P; higher = faster cleavage; RNA array
Outline: as §1

glucosamine-6-phosphate [4] = variants of: B1; experiment: self-cleavage kobs at 2500 uM GlcN6P; higher = faster cleavage; RNA array
Outline: as §1

glucosamine-6-phosphate [5] = variants of: B1; experiment: self-cleavage kobs at 640 uM GlcN6P; higher = faster cleavage; RNA array
Outline: as §1

| Variant | self-cleavage kobs at 40 uM GlcN6P (glucosamine-6-phosphate [1]) [s⁻¹] | self-cleavage kobs at 10000 uM GlcN6P (glucosamine-6-phosphate [2]) [s⁻¹] | self-cleavage kobs at 160 uM GlcN6P (glucosamine-6-phosphate [3]) [s⁻¹] | self-cleavage kobs at 2500 uM GlcN6P (glucosamine-6-phosphate [4]) [s⁻¹] | self-cleavage kobs at 640 uM GlcN6P (glucosamine-6-phosphate [5]) [s⁻¹] |
| --- | --- | --- | --- | --- | --- |
| G41C C50A G63U C67A | < 1e-05 | < 1e-05 |  |  |  |
| A42C U46G | < 1e-05 |  | < 1e-05 |  |  |
| G43A G62A | < 1e-05 | < 1e-05 | < 1e-05 | < 1e-05 |  |
| A6C G7C A39C G41C C61U | < 1e-05 |  |  |  |  |
| A15G G32A | 6.35e-05 ± 1.4e-05 | 0.00311 ± 0.00077 | 0.000114 ± 2.3e-05 | 0.00103 ± 0.00018 | 0.000628 ± 7.7e-05 |
| A6U G26A A48U A52G | < 1e-05 |  | < 1e-05 |  |  |
| G9U A53U | < 1e-05 | < 1e-05 | < 1e-05 |  | < 1e-05 |
| C34A C58U C71U | < 1e-05 | < 1e-05 |  |  |  |
| A12C G43C G66U | < 1e-05 | < 1e-05 |  |  |  |
| G13A U31C A36U C58A G60C G62A C67G | 6.61e-05 ± 3.2e-05 |  |  | 0.000425 ± 0.00017 |  |
| C11U A14G A15G | 0.000235 ± 5.3e-05 | 0.0112 ± 0.0025 |  |  |  |
| U46G C50G | 4.21e-05 ± 9.2e-06 | 2.21e-05 ± 7.3e-06 | 7.37e-05 ± 1.5e-05 |  | 4.09e-05 ± 1.3e-05 |
| G9C A14G | < 1e-05 | < 1e-05 | < 1e-05 | < 1e-05 | < 1e-05 |
| U30C A42C | < 1e-05 | < 1e-05 | < 1e-05 | < 1e-05 |  |
| G7C A52C | < 1e-05 |  | < 1e-05 | < 1e-05 | < 1e-05 |
| A23C | 0.00185 ± 0.00044 | 0.0549 ± 0.021 | 0.00277 ± 0.00082 | 0.0102 ± 0.0033 | 0.00459 ± 0.0012 |
| C11G G13A G41U U45G G66A | < 1e-05 |  |  |  |  |
| U47C C58U C71U | < 1e-05 | 3.48e-05 ± 1.1e-05 |  |  |  |
| G51C C61U | < 1e-05 |  |  |  |  |
| G9U C16A | < 1e-05 | < 1e-05 | < 1e-05 | < 1e-05 | < 1e-05 |
| G7C C34U G35A G37U A42U G43U C71A | < 1e-05 |  |  |  | < 1e-05 |
| A14G U56C C61G | < 1e-05 | < 1e-05 |  |  |  |

| Variant | self-cleavage kobs at 40 uM GlcN6P (glucosamine-6-phosphate [1]) [s⁻¹] | self-cleavage kobs at 10000 uM GlcN6P (glucosamine-6-phosphate [2]) [s⁻¹] | self-cleavage kobs at 160 uM GlcN6P (glucosamine-6-phosphate [3]) [s⁻¹] | self-cleavage kobs at 2500 uM GlcN6P (glucosamine-6-phosphate [4]) [s⁻¹] | self-cleavage kobs at 640 uM GlcN6P (glucosamine-6-phosphate [5]) [s⁻¹] |
| --- | --- | --- | --- | --- | --- |
| C11G G44C G60A | < 1e-05 | < 1e-05 | < 1e-05 |  |  |
| G13U C61U | < 1e-05 | < 1e-05 | < 1e-05 |  | < 1e-05 |
| G38A U47A C71G | < 1e-05 | < 1e-05 |  |  |  |
| C11G C58G | < 1e-05 | < 1e-05 | < 1e-05 |  | < 1e-05 |
| A48C G59U | < 1e-05 | < 1e-05 | < 1e-05 | < 1e-05 | < 1e-05 |
| A12U U45G U55C | 0.000356 ± 7.4e-05 | 0.00793 ± 0.002 |  |  |  |
| A33C G44C U45C | < 1e-05 | < 1e-05 |  |  | < 1e-05 |
| C58A C61U G66U | < 1e-05 |  |  |  |  |
| C8G U47G C68A | < 1e-05 |  |  | < 1e-05 |  |
| A15C A42C | < 1e-05 | < 1e-05 |  |  | < 1e-05 |
| U45G G60U C67U C70A | < 1e-05 | < 1e-05 |  |  | < 1e-05 |
| G41C G60U | < 1e-05 |  | < 1e-05 | < 1e-05 | < 1e-05 |
| C58G A64G C70G | < 1e-05 |  |  |  |  |
| A14C C16G C50G | 8.94e-05 ± 3.4e-05 |  |  |  |  |
| U31A C71G | 4.17e-05 ± 1e-05 | 0.000728 ± 0.00011 | 0.000162 ± 3.4e-05 | 0.000225 ± 4.8e-05 | 0.000196 ± 3.4e-05 |
| G7U G40C G43C | < 1e-05 | < 1e-05 |  |  |  |
| G51A U55G | < 1e-05 |  | < 1e-05 |  | < 1e-05 |
| C11U A42C C67G C71A | < 1e-05 | < 1e-05 |  |  |  |
| A39G G43U G44U U55G | < 1e-05 | < 1e-05 |  | < 1e-05 | < 1e-05 |
| C11U A48C | < 1e-05 | < 1e-05 | < 1e-05 | < 1e-05 | < 1e-05 |
| U30A U69G | < 1e-05 |  |  |  |  |
| G59C A64U | < 1e-05 | < 1e-05 | < 1e-05 |  | < 1e-05 |
